A short description of this data set: total protein half-life in vivo (active degradation + dilution); higher = more stable protein.
The mark [1] stands for this setting: E. coli NCM3722 delta-clpP delta-lon delta-hslV, growth: N-lim chemostat, doubling time 6 h.
Setting [2] is: E. coli NCM3722 delta-clpP, growth: N-lim chemostat, doubling time 6 h.
Where [3] appears, read: E. coli NCM3722 delta-hslV, growth: N-lim chemostat, doubling time 6 h.
The mark [4] stands for this setting: E. coli NCM3722 delta-lon, growth: N-lim chemostat, doubling time 6 h.
The mark [5] stands for this setting: E. coli NCM3722 delta-smpB, growth: N-lim chemostat, doubling time 6 h.
[6] abbreviates: wild type E. coli NCM3722, growth: C-lim chemostat, doubling time 3 h.
Setting [7] is: wild type E. coli NCM3722, growth: C-lim chemostat, doubling time 6 h.
Where [8] appears, read: wild type E. coli NCM3722, growth: C-lim chemostat, doubling time 12 h.
The mark [9] stands for this setting: wild type E. coli NCM3722, growth: N-lim chemostat, doubling time 6 h.
The mark [10] stands for this setting: wild type E. coli NCM3722, growth: N-lim chemostat, doubling time 12 h.
[11] abbreviates: wild type E. coli NCM3722, growth: P-lim chemostat, doubling time 6 h.
The mark [12] stands for this setting: wild type E. coli NCM3722, growth: P-lim chemostat, doubling time 12 h.

± gives the standard deviation of the averaged measurements.

Consider “MDSSFTPIEQMLKFRASRHEDFPYQEILLTRLCMHMQSKLLENRNKMLKAQGINETLFMALITLESQENHSIQPSELSCALGSSRTNATRIADELEKRGWIERRESDNDRRCLHLQLTEKGHEFLREVLPPQHNCLHQLWSALSTTEKDQLEQITRKLLSRLDQMEQDGVVLEAMS [P0ACR9]”, for which the “total protein half-life in vivo” value is, setting by setting: under setting [1], 6.37 ± 0.21 h; under setting [2], 6.705 ± 0.017 h; under setting [3], 5.82 ± 1 h; under setting [4], 5.39 ± 0.61 h; under setting [5], 4.81 ± 0.11 h; under setting [6], 2.7 ± 0.27 h. In addition, the “total protein half-life in vivo” value amounted to 5.49 ± 0.42 h under setting [7]; 11 ± 0.57 h under setting [8]; 4.78 ± 0.44 h under setting [9]; 7.04 ± 0.45 h under setting [10]; 4.86 ± 0.51 h under setting [11]; 9.8 ± 0.2 h under setting [12].
For “MRLTTKFSAFVTLLTGLTIFVTLLGCSLSFYNAIQYKFSHRVQAVATAIDTHLVSNDFSVLRPQITELMMSADIVRVDLLHGDKQVYTLARNGSYRPVGSSDLFRELSVPLIKHPGMSLRLVYQDPMGNYFHSLMTTAPLTGAIGFIIVMLFLAVRWLQRQLAGQELLETRATRILNGERGSNVLGTIYEWPPRTSSALDTLLREIQNAREQHSRLDTLIRSYAAQDVKTGLNNRLFFDNQLATLLEDQEKVGTHGIVMMIRLPDFNMLSDTWGHSQVEEQFFTLTNLLSTFMMRYPGALLARYHRSDFAALLPHRTLKEAESIAGQLIKAVDTLPNNKMLDRDDMIHIGICAWRSGQDTEQVMEHAESATRNAGLQGGNSWAIYDDSLPEKGRGNVRWRTLIEQMLSRGGPRLYQKPAVTREGQVHHRELMCRIFDGNEEVSSAEYMPMVLQFGLSEEYDRLQISRLIPLLRYWPEENLAIQVTVESLIRPRFQRWLRDTLMQCEKSQRKRIIIELAEADVGQHISRLQPVIRLVNALGVRVAVNQAGLTLVSTSWIKELNVELLKLHPGLVRNIEKRTENQLLVQSLVEACSGTSTQVYATGVRSRSEWQTLIQRGVTGGQGDFFASSQPLDTNVKKYSQRYSV”, the “total protein half-life in vivo” value under setting [1] was 6 ± 1.2 h; the “total protein half-life in vivo” value under setting [2] came to 6.52 ± 0.62 h; the “total protein half-life in vivo” value under setting [3] is 6.35 ± 0.42 h; the “total protein half-life in vivo” value under setting [4] was 5.67 ± 0.62 h; the “total protein half-life in vivo” value under setting [5] was 5.945 ± 0.0086 h; the “total protein half-life in vivo” value under setting [6] came out at 3.44 ± 0.17 h. Also, the “total protein half-life in vivo” value reads like this: under setting [7], 6.042 ± 0.0062 h; under setting [9], 6.45 ± 0.23 h; under setting [10], 11.59 ± 0.06 h; under setting [11], 5.52 ± 0.13 h; under setting [12], 13 ± 0.43 h.
With “MKKTRTANLHHLYHEPLPENLKLTPKVEVDNVHQRQTTDVYEHALTITAWQQIYDQLHPGKFHGEFTEILLDDIQVFREYTGLALRQSCLVWPNSFWFGIPATRGEQGFIGSQCLGSAEIATRPGGTEFELSTPDDYTILGVVLSEDVITRQANFLHNPDRVLHMLRNQSALEVKEQHKAALWGFVQQALATFCENPENLHQPAVRKVLGDNLLMAMGAMLEEAQPMVTAESISHQSYRRLLSRAREYVLENMSEPVTVLDLCNQLHVSRRTLQNAFHAILGIGPNAWLKRIRLNAVRRELISPWSQSMTVKDAAMQWGFWHLGQFATDYQQLFSEKPSLTLHQRMREWG”, the “total protein half-life in vivo” value under setting [1] amounted to 5.53 ± 0.77 h, the “total protein half-life in vivo” value under setting [7] stood at 1.42 h, the “total protein half-life in vivo” value under setting [10] was 2.75 h and the “total protein half-life in vivo” value under setting [11] was 1.29 h.
As to “MQLRKPATAILALALSAGLAQADDAAPAAGSTLDKIAKNGVIVVGHRESSVPFSYYDNQQKVVGYSQDYSNAIVEAVKKKLNKPDLQVKLIPITSQNRIPLLQNGTFDFECGSTTNNVERQKQAAFSDTIFVVGTRLLTKKGGDIKDFANLKDKAVVVTSGTTSEVLLNKLNEEQKMNMRIISAKDHGDSFRTLESGRAVAFMMDDALLAGERAKAKKPDNWEIVGKPQSQEAYGCMLRKDDPQFKKLMDDTIAQVQTSGEAEKWFDKWFKNPIPPKNLNMNFELSDEMKALFKEPNDKALN”, the “total protein half-life in vivo” value is, setting by setting: under setting [1], 6.32 ± 0.97 h; under setting [2], 6.45 ± 1.6 h; under setting [3], 6.8 ± 0.39 h; under setting [4], 7.14 ± 0.3 h; under setting [5], 6.02 ± 0.43 h; under setting [6], 3.26 ± 0.14 h. Also, the “total protein half-life in vivo” value is 6.76 ± 0.34 h under setting [7]; 11.3 ± 0.22 h under setting [8]; 5.9 ± 0.54 h under setting [9]; 14.1 ± 0.48 h under setting [10]; 5.81 ± 0.41 h under setting [11]; 13.2 ± 0.35 h under setting [12].
Turning to “MCEGYVEKPLYLLIAEWMMAENRWVIAREISIHFDIEHSKAVNTLTYILSEVTEISCEVKMIPNKLEGRGCQCQRLVKVVDIDEQIYARLRNNSREKLVGVRKTPRIPAVPLTELNREQKWQMMLSKSMRR [P0AE58]”, the “total protein half-life in vivo” value under setting [1] was determined as 3.96 ± 0.18 h.
Regarding “MAIRKRFIAGAKCPACQAQDSMAMWRENNIDIVECVKCGHQMREADKEARDHVRKDEQVIGIFHPD [P0ADW8]”, the “total protein half-life in vivo” value by setting is: under setting [1], 4.91 ± 0.73 h; under setting [2], 3.52 ± 0.46 h; under setting [5], 2.16 ± 0.17 h; under setting [6], 1.8 ± 0.47 h; under setting [7], 4.08 ± 1.4 h; under setting [8], 2.51 h. Moreover, the “total protein half-life in vivo” value by setting is: under setting [10], 2.52 h; under setting [11], 3.48 h; under setting [12], 7.36 ± 1.6 h.
Regarding “MHVTAKPSSFQCNLKCDYCFYLEKESQFTHEKWMDDSTLKEFIKQYIAASGNQVYFTWQGGEPTLAGLDFFRKVIHYQQRYAGQKRIFNALQTNGILLNNEWCAFLKEHEFLVGISIDGPQELHDRYRRSNSGNGTFAKVIAAIERLKSYQVEFNTLTVINNVNVHYPLEVYHFLKSIGSKHMQFIELLETGTPNIDFSGHSENTFRIIDFSVPPTAYGKFMSTIFMQWVKNDVGEIFIRQFESFVSRFLGNGHTSCIFQESCKDNLVVESNGDIYECDHFVYPQYKIGNINKSELKTMNSVQLTAQKKRIPAKCQQCAYKPICNGGCPKHRITKVNNETVSYFCEGYKILFSTMVPYMNAMVELAKNRVPLYHIMDVAKQMENN”, the “total protein half-life in vivo” value runs as follows: under setting [6], 1.12 ± 0.083 h; under setting [7], 1.77 ± 0.19 h; under setting [8], 2.03 h.
As for “MANIEIRQETPTAFYIKVHDTDNVAIIVNDNGLKAGTRFPDGLELIEHIPQGHKVALLDIPANGEIIRYGEVIGYAVRAIPRGSWIDESMVVLPEAPPLHTLPLATKVPEPLPPLEGYTFEGYRNADGSVGTKNLLGITTSVHCVAGVVDYVVKIIERDLLPKYPNVDGVVGLNHLYGCGVAINAPAAVVPIRTIHNISLNPNFGGEVMVIGLGCEKLQPERLLTGTDDVQAIPVESASIVSLQDEKHVGFQSMVEDILQIAERHLQKLNQRQRETCPASELVVGMQCGGSDAFSGVTANPAVGYASDLLVRCGATVMFSEVTEVRDAIHLLTPRAVNEEVGKRLLEEMEWYDNYLNMGKTDRSANPSPGNKKGGLANVVEKALGSIAKSGKSAIVEVLSPGQRPTKRGLIYAATPASDFVCGTQQVASGITVQVFTTGRGTPYGLMAVPVIKMATRTELANRWFDLMDINAGTIATGEETIEEVGWKLFHFILDVASGKKKTFSDQWGLHNQLAVFNPAPVT”, the “total protein half-life in vivo” value was found to be 4.25 ± 0.3 h under setting [1]; 2.43 h under setting [2]; 2.1 ± 0.18 h under setting [6]; 3.22 ± 0.48 h under setting [7]; 3.39 ± 0.27 h under setting [8]; 3.6 h under setting [12].
On to “MNLNSIPAFDDNYIWVLNDEAGRCLIVDPGDAEPVLNAIAANNWQPEAIFLTHHHHDHVGGVKELVEKFPQIVVYGPQETQDKGTTQVVKDGETAFVLGHEFSVIATPGHTLGHICYFSKPYLFCGDTLFSGGCGRLFEGTASQMYQSLKKLSALPDDTLVCCAHEYTLSNMKFALSILPHDLSINDYYRKVKELRAKNQITLPVILKNERQINVFLRTEDIDLINVINEETLLQQPEERFAWLRSKKDRF [P0AC84]”, for which the “total protein half-life in vivo” value runs as follows: under setting [1], 4.67 ± 0.3 h; under setting [2], 4.24 ± 0.2 h; under setting [3], 4.88 ± 0.89 h; under setting [4], 4.5351 ± 0.0033 h; under setting [5], 4.01 ± 0.41 h; under setting [6], 2.81 ± 0.13 h. The “total protein half-life in vivo” value is, setting by setting: under setting [7], 4.76 ± 0.13 h; under setting [8], 7.09 ± 1.1 h; under setting [9], 4.31 ± 0.21 h; under setting [10], 6.316 ± 0.03 h; under setting [11], 4.81 ± 0.13 h; under setting [12], 8.75 ± 0.89 h.
Take “MNEVVNSGVMNIASLVVSVVVLLIGLILWFFINRASSRTNEQIELLEALLDQQKRQNALLRRLCEANEPEKADKKTVESQKSVEDEDIIRLVAER”: the “total protein half-life in vivo” value under setting [1] was found to be 3.97 ± 0.73 h; the “total protein half-life in vivo” value under setting [2] worked out at 6.38 h; the “total protein half-life in vivo” value under setting [4] was 1.45 h; the “total protein half-life in vivo” value under setting [5] came out at 1.31 h; the “total protein half-life in vivo” value under setting [6] was determined as 2.6 h; the “total protein half-life in vivo” value under setting [9] was 1.78 h. In addition, the “total protein half-life in vivo” value was found to be 2.17 h under setting [11] and 3.4 ± 1.1 h under setting [12].

Values taken from the supplement of paper PMC11246515.
